Experimental data published in EP4361176A1.

Tests used:
[1] = target: human FcγRIIb extracellular domain with C-terminal His-tag (human) (UniProt P31994); assay: SPR (Biacore T200), FcγRIIb 1000 nM, amount bound per unit captured antibody
[2] = target: human FcγRIIb extracellular domain with C-terminal His-tag (human) (UniProt P31994); assay: SPR; binding amount / that of 04H1637-G1m/04L1610-lam1

human FcγRIIb extracellular domain with C-terminal His-tag (human), sequence (P31994 43-217): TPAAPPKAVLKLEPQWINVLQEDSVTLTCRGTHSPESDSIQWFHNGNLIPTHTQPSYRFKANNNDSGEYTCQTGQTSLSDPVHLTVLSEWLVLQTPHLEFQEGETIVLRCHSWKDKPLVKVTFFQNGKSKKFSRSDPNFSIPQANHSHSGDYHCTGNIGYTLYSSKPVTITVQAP

Binding amount [1] | Relative binding amount [2] | Binder
0.025 | 3.1 | 04H1654-KT462/04L1610-lam1//04H1656-HT445/04L1610-lam1 (antibody, human IgG1, lambda) heavy 1: QVQLVESGGGVVQPGGSLRLSCAASGFTFSSKTMNWVRQAPGKGLEWVSSISTQSHYIYYARSVRGRFTISRDNAKNSLYLQMNSLRAEDTAVYYCARYGKREDMLWVFDYWGQGTLVTVSSASTKGPSVFPLAPSSKSTSGGTAALGCLVKDYFPEPVTVSWNSGALTSGVHTFPAVLQSSGLYSLSSVVTVPSSSLGTQTYICNVNHKPSNTKVDKRVEPKSCDKTHTCPPCPAPEFQWGPMVFLFPPKPKDVLMISRTPEVTCVVVDVSDEEPEVKFNWYVDGVEVHNAKTKPREEQYNATYRVVSVLPVLHQDWLNGKEYKCKVSNDALPAPIEKTISKAKGQPREPQVYTLPPSRKEMTKNQVSLTCLVKGFYPSDIAVEWESNGQPENNYKTTPPVLDSDGSFFLYSKLTVDKSRWQQGNVFSCSVMHEALHNHYTQKSLSLSP heavy 2: QVQLVESGGGVVQPGGSLRLSCAASGFTFSSKTMNWVRQAPGKGLEWVSSISTQSHYIYYAESVRGRFTISRDNAKNSLYLQMNSLRAEDTAVYYCARYGAREDMLWVFDYWGQGTLVTVSSASTKGPSVFPLAPSSKSTSGGTAALGCLVKDYFPEPVTVSWNSGALTSGVHTFPAVLQSSGLYSLSSVVTVPSSSLGTQTYICNVNHKPSNTKVDKRVEPKSCDKTHTCPPCPAPELLAGPSVFLFPPKPKDVLMISRTPEVTCVVVDVSHEEPEVKFNWYVDGVEVHNAKTKPREEQYNATYRVVSVLPVLHQDWLNGKEYKCKVSNDALPKPDEETISKAKGQPREPQVYTLPPSREEMTKNQVSLTCLVKGFYPSDIAVEWESNGQPENNYKTTPPVLDSDGSFFLYSKLTVDKSRWQQGNVFSCSVMHEALHNHYTQESLSLSP light: QSALTQPPSASGSPGQSVTISCEGPSTGVGDYNWVHWYQQHPGKAPKLMIYFTSKKPSGVPDRFSGSKSGNTASLTVSGLQAEDEADYYCQTYAAPLGPMFGGGTKLTVLGQPKAAPSVTLFPPSSEELQANKATLVCLISDFYPGAVTVAWKADSSPVKAGVETTTPSKQSNNKYAASSYLSLTPEQWKSHRSYSCQVTHEGSTVEKTVAPTECS
0.026 | 3.2 | 04H1654-KT473/04L1610-lam1//04H1656-HT482/04L1610-lam1 (antibody) heavy 1: QVQLVESGGGVVQPGGSLRLSCAASGFTFSSKTMNWVRQAPGKGLEWVSSISTQSHYIYYARSVRGRFTISRDNAKNSLYLQMNSLRAEDTAVYYCARYGKREDMLWVFDYWGQGTLVTVSSASTKGPSVFPLAPSSKSTSGGTAALGCLVKDYFPEPVTVSWNSGALTSGVHTFPAVLQSSGLYSLSSVVTVPSSSLGTQTYICNVNHKPSNTKVDKRVEPKSCDKTHTCPPCPAPEFQWGPMVFLFPPKPKDVLMISRTPEVTCVVVDVSDEEPEVKFNWYVDGVEVHNAKTKPREEQYNATYRVVSVLPVLHQDWLNGKEYKCKVSNDALPAPIEKTISKAKGQPREPQVYTLPPSRKEMTKNQVSLTCLVKGFYPSDIAVEWESNGQPENNYKTTPPVLDSDGSFFLYSKLTVDKSRWQQGNVFSCSVMHEALHAHTTRKELSLSP heavy 2: QVQLVESGGGVVQPGGSLRLSCAASGFTFSSKTMNWVRQAPGKGLEWVSSISTQSHYIYYAESVRGRFTISRDNAKNSLYLQMNSLRAEDTAVYYCARYGAREDMLWVFDYWGQGTLVTVSSASTKGPSVFPLAPSSKSTSGGTAALGCLVKDYFPEPVTVSWNSGALTSGVHTFPAVLQSSGLYSLSSVVTVPSSSLGTQTYICNVNHKPSNTKVDKRVEPKSCDKTHTCPPCPAPELLAGPSVFLFPPKPKDVLMISRTPEVTCVVVDVSHEEPEVKFNWYVDGVEVHNAKTKPREEQYNATYRVVSVLPVLHQDWLNGKEYKCKVSNDALPKPDEETISKAKGQPREPQVYTLPPSREEMTKNQVSLTCLVKGFYPSDIAVEWESNGQPENNYKTTPPVLDSDGSFFLYSKLTVDKSRWQQGNVFSCSVMHEALHAHTTREELSLSP light: QSALTQPPSASGSPGQSVTISCEGPSTGVGDYNWVHWYQQHPGKAPKLMIYFTSKKPSGVPDRFSGSKSGNTASLTVSGLQAEDEADYYCQTYAAPLGPMFGGGTKLTVLGQPKAAPSVTLFPPSSEELQANKATLVCLISDFYPGAVTVAWKADSSPVKAGVETTTPSKQSNNKYAASSYLSLTPEQWKSHRSYSCQVTHEGSTVEKTVAPTECS
0.028 | 3.4 | 04H1654-KT462/04L1612-lam1//04H1656-HT445/04L1612-lam1 (antibody, human IgG1, lambda) heavy 1: QVQLVESGGGVVQPGGSLRLSCAASGFTFSSKTMNWVRQAPGKGLEWVSSISTQSHYIYYARSVRGRFTISRDNAKNSLYLQMNSLRAEDTAVYYCARYGKREDMLWVFDYWGQGTLVTVSSASTKGPSVFPLAPSSKSTSGGTAALGCLVKDYFPEPVTVSWNSGALTSGVHTFPAVLQSSGLYSLSSVVTVPSSSLGTQTYICNVNHKPSNTKVDKRVEPKSCDKTHTCPPCPAPEFQWGPMVFLFPPKPKDVLMISRTPEVTCVVVDVSDEEPEVKFNWYVDGVEVHNAKTKPREEQYNATYRVVSVLPVLHQDWLNGKEYKCKVSNDALPAPIEKTISKAKGQPREPQVYTLPPSRKEMTKNQVSLTCLVKGFYPSDIAVEWESNGQPENNYKTTPPVLDSDGSFFLYSKLTVDKSRWQQGNVFSCSVMHEALHNHYTQKSLSLSP heavy 2: QVQLVESGGGVVQPGGSLRLSCAASGFTFSSKTMNWVRQAPGKGLEWVSSISTQSHYIYYAESVRGRFTISRDNAKNSLYLQMNSLRAEDTAVYYCARYGAREDMLWVFDYWGQGTLVTVSSASTKGPSVFPLAPSSKSTSGGTAALGCLVKDYFPEPVTVSWNSGALTSGVHTFPAVLQSSGLYSLSSVVTVPSSSLGTQTYICNVNHKPSNTKVDKRVEPKSCDKTHTCPPCPAPELLAGPSVFLFPPKPKDVLMISRTPEVTCVVVDVSHEEPEVKFNWYVDGVEVHNAKTKPREEQYNATYRVVSVLPVLHQDWLNGKEYKCKVSNDALPKPDEETISKAKGQPREPQVYTLPPSREEMTKNQVSLTCLVKGFYPSDIAVEWESNGQPENNYKTTPPVLDSDGSFFLYSKLTVDKSRWQQGNVFSCSVMHEALHNHYTQESLSLSP light: QSALTQPPSASGSPGQSVTISCEGPSTGVGDYTYVHWYQQHPGKAPKLMIYFTSKKPSGVPDRFSGSKSGNTASLTVSGLQAEDEADYYCQTYAAPLGPMFGGGTKLTVLGQPKAAPSVTLFPPSSEELQANKATLVCLISDFYPGAVTVAWKADSSPVKAGVETTTPSKQSNNKYAASSYLSLTPEQWKSHRSYSCQVTHEGSTVEKTVAPTECS
0.022 | 2.7 | 04H1654-KT481/04L1610-lam1//04H1656-HT498/04L1610-lam1 (antibody) heavy 1: QVQLVESGGGVVQPGGSLRLSCAASGFTFSSKTMNWVRQAPGKGLEWVSSISTQSHYIYYARSVRGRFTISRDNAKNSLYLQMNSLRAEDTAVYYCARYGKREDMLWVFDYWGQGTLVTVSSASTKGPSVFPLAPSSKSTSGGTAALGCLVKDYFPEPVTVSWNSGALTSGVHTFPAVLQSSGLYSLSSVVTVPSSSLGTQTYICNVNHKPSNTKVDKRVEPKSCDKTHTCPPCPAPEFQWGPMVFLFPPKPKDVLMISRTPEVTCVVVDVSDEEPEVKFNWYVDGVEVHNAKTKPREEQYNATYRVVSVLPVLHQDWLNGKEYKCKVSNDALPAPEEKTISKAKGQPREPQVYTLPPSRKEMTKNQVSLTCLVKGFYPSDIAVEWESNGQPENNYKTTPPVLDSDGSFFLYSKLTVDKSRWQQGNVFSCSVMHEALHAHTTRKELSLSP heavy 2: QVQLVESGGGVVQPGGSLRLSCAASGFTFSSKTMNWVRQAPGKGLEWVSSISTQSHYIYYAESVRGRFTISRDNAKNSLYLQMNSLRAEDTAVYYCARYGAREDMLWVFDYWGQGTLVTVSSASTKGPSVFPLAPSSKSTSGGTAALGCLVKDYFPEPVTVSWNSGALTSGVHTFPAVLQSSGLYSLSSVVTVPSSSLGTQTYICNVNHKPSNTKVDKRVEPKSCDKTHTCPPCPAPELLAGPSVFLFPPKPKDVLMISRTPEVTCVVVDVSHEEPEVKFNWYVDGVEVHNAKTKPREEQYNATYRVVSVLPVLHQDWLNGKEYKCKVSNDALPAPEEETISKAKGQPREPQVYTLPPSREEMTKNQVSLTCLVKGFYPSDIAVEWESNGQPENNYKTTPPVLDSDGSFFLYSKLTVDKSRWQQGNVFSCSVMHEALHAHTTREELSLSP light: QSALTQPPSASGSPGQSVTISCEGPSTGVGDYNWVHWYQQHPGKAPKLMIYFTSKKPSGVPDRFSGSKSGNTASLTVSGLQAEDEADYYCQTYAAPLGPMFGGGTKLTVLGQPKAAPSVTLFPPSSEELQANKATLVCLISDFYPGAVTVAWKADSSPVKAGVETTTPSKQSNNKYAASSYLSLTPEQWKSHRSYSCQVTHEGSTVEKTVAPTECS
0.025 | 3.1 | 04H1654-KT461/04L1610-lam1//04H1656-HT443/04L1610-lam1 (antibody, human IgG1, lambda) heavy 1: QVQLVESGGGVVQPGGSLRLSCAASGFTFSSKTMNWVRQAPGKGLEWVSSISTQSHYIYYARSVRGRFTISRDNAKNSLYLQMNSLRAEDTAVYYCARYGKREDMLWVFDYWGQGTLVTVSSASTKGPSVFPLAPSSKSTSGGTAALGCLVKDYFPEPVTVSWNSGALTSGVHTFPAVLQSSGLYSLSSVVTVPSSSLGTQTYICNVNHKPSNTKVDKRVEPKSCDKTHTCPPCPAPEFQWGPMVFLFPPKPKDVLMISRTPEVTCVVVDVSDEEPEVKFNWYVDGVEVHNAKTKPREEQYNATYRVVSVLPVLHQDWLNGKEYKCKVSNDALPAPEEKTISKAKGQPREPQVYTLPPSRKEMTKNQVSLTCLVKGFYPSDIAVEWESNGQPENNYKTTPPVLDSDGSFFLYSKLTVDKSRWQQGNVFSCSVMHEALHNHYTQKSLSLSP heavy 2: QVQLVESGGGVVQPGGSLRLSCAASGFTFSSKTMNWVRQAPGKGLEWVSSISTQSHYIYYAESVRGRFTISRDNAKNSLYLQMNSLRAEDTAVYYCARYGAREDMLWVFDYWGQGTLVTVSSASTKGPSVFPLAPSSKSTSGGTAALGCLVKDYFPEPVTVSWNSGALTSGVHTFPAVLQSSGLYSLSSVVTVPSSSLGTQTYICNVNHKPSNTKVDKRVEPKSCDKTHTCPPCPAPELLAGPSVFLFPPKPKDVLMISRTPEVTCVVVDVSHEEPEVKFNWYVDGVEVHNAKTKPREEQYNATYRVVSVLPVLHQDWLNGKEYKCKVSNDALPAPEEETISKAKGQPREPQVYTLPPSREEMTKNQVSLTCLVKGFYPSDIAVEWESNGQPENNYKTTPPVLDSDGSFFLYSKLTVDKSRWQQGNVFSCSVMHEALHNHYTQESLSLSP light: QSALTQPPSASGSPGQSVTISCEGPSTGVGDYNWVHWYQQHPGKAPKLMIYFTSKKPSGVPDRFSGSKSGNTASLTVSGLQAEDEADYYCQTYAAPLGPMFGGGTKLTVLGQPKAAPSVTLFPPSSEELQANKATLVCLISDFYPGAVTVAWKADSSPVKAGVETTTPSKQSNNKYAASSYLSLTPEQWKSHRSYSCQVTHEGSTVEKTVAPTECS
